Source: the supplement of paper PMC9112550, “Optimization of the antimicrobial peptide Bac7 by deep mutational scanning” (BMC Biology, 2022)

Test system: Escherichia coli TOP10
Assay: shrunken log2 fold change of peptide-encoding DNA abundance (4.5 h post-induction vs induction); higher = less antimicrobial activity (less host growth inhibition)
Settings: time post-induction: 4.5 h; library: site-saturation at positions 5, 18, 19, 20
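Also: peptides expressed intracellularly from a pBAD plasmid library in pooled LB shake-flask culture, induced with 0.3% L-arabinose, DNA abundance read by NGS, three biological replicates, DESeq2 with apeglm shrinkage.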

Row | Sequence | shrunken log2 fold change
1 | RRIRTRPPRLPRPRPRPFWPPRP | 0.178
2 | RRIRARPPRLPRPRPRPGHPPRP | 0.543
3 | RRIRPRPPRLPRPRPRPQYTPRP | -0.813
4 | RRIRARPPRLPRPRPRPDNMPRP | -0.45
5 | RRIRRRPPRLPRPRPRPESCPRP | 0.763
6 | RRIRFRPPRLPRPRPRPNMQPRP | -0.846
7 | RRIRTRPPRLPRPRPRPPRPPRP | 0.713
8 | RRIRLRPPRLPRPRPRPYWFPRP | -0.758
9 | RRIRPRPPRLPRPRPRPKPSPRP | 0.699
10 | RRIRRRPPRLPRPRPRPECPPRP | 0.176
11 | RRIRTRPPRLPRPRPRPVWIPRP | -0.651
12 | RRIRWRPPRLPRPRPRPKNEPRP | 0.177
13 | RRIRERPPRLPRPRPRPLITPRP | -0.412
14 | RRIRERPPRLPRPRPRPRYWPRP | 0.185
15 | RRIRKRPPRLPRPRPRPVGVPRP | 0.515
16 | RRIRKRPPRLPRPRPRPTAHPRP | 0.513
17 | RRIRPRPPRLPRPRPRPFGHPRP | -0.0335
18 | RRIRLRPPRLPRPRPRPKLRPRP | -0.00715
19 | RRIRVRPPRLPRPRPRPDGGPRP | -0.0572
20 | RRIRLRPPRLPRPRPRPDFNPRP | -0.444
21 | RRIRKRPPRLPRPRPRPGMGPRP | 0.606
22 | RRIRMRPPRLPRPRPRPEMVPRP | 0.0598
23 | RRIRMRPPRLPRPRPRPCNDPRP | -0.165
24 | RRIRFRPPRLPRPRPRPETMPRP | 0.0761
25 | RRIRNRPPRLPRPRPRPFGLPRP | -0.231

Row | Sequence | shrunken log2 fold change
26 | RRIRVRPPRLPRPRPRPVWCPRP | 0.423
27 | RRIRFRPPRLPRPRPRPLQEPRP | -0.203
28 | RRIRSRPPRLPRPRPRPNRRPRP | -0.0429
29 | RRIRVRPPRLPRPRPRPQVWPRP | 0.345
30 | RRIRCRPPRLPRPRPRPCAWPRP | 0.0576
31 | RRIRFRPPRLPRPRPRPHLPPRP | -0.0118
32 | RRIRGRPPRLPRPRPRPLGPPRP | 0.456
33 | RRIRSRPPRLPRPRPRPHHWPRP | -0.221
34 | RRIRWRPPRLPRPRPRPRTTPRP | 0.755
35 | RRIRNRPPRLPRPRPRPSDMPRP | -0.117
36 | RRIRLRPPRLPRPRPRPSYNPRP | -0.588
37 | RRIRLRPPRLPRPRPRPQATPRP | -0.0468
38 | RRIRTRPPRLPRPRPRPWKNPRP | -0.0599
39 | RRIRFRPPRLPRPRPRPEGAPRP | 1.05
40 | RRIRCRPPRLPRPRPRPFLPPRP | -0.265
41 | RRIRCRPPRLPRPRPRPKIWPRP | 0.121
42 | RRIRYRPPRLPRPRPRPWWWPRP | 0.0798
43 | RRIRYRPPRLPRPRPRPIEVPRP | -0.217
44 | RRIRRRPPRLPRPRPRPKDSPRP | 0.191
45 | RRIRQRPPRLPRPRPRPTERPRP | 0.313
46 | RRIRRRPPRLPRPRPRPYHQPRP | -0.0224
47 | RRIRYRPPRLPRPRPRPYDAPRP | -0.129
48 | RRIRMRPPRLPRPRPRPFFQPRP | -0.134
49 | RRIRNRPPRLPRPRPRPWFYPRP | -0.154
50 | RRIRIRPPRLPRPRPRPQSDPRP | -0.212

Row | Sequence | shrunken log2 fold change
51 | RRIRLRPPRLPRPRPRPGHHPRP | -0.2
52 | RRIRHRPPRLPRPRPRPELTPRP | 0.054
53 | RRIRQRPPRLPRPRPRPIWFPRP | -0.000433
54 | RRIRFRPPRLPRPRPRPRHAPRP | 0.389
55 | RRIRWRPPRLPRPRPRPKPSPRP | 0.512
56 | RRIRMRPPRLPRPRPRPEATPRP | 4.04
57 | RRIRDRPPRLPRPRPRPRKGPRP | 0.0785
58 | RRIRFRPPRLPRPRPRPGWKPRP | 0.208
59 | RRIRARPPRLPRPRPRPKDKPRP | 0.0564
60 | RRIRVRPPRLPRPRPRPFSNPRP | -0.28
61 | RRIRCRPPRLPRPRPRPNPSPRP | 0.0638
62 | RRIRRRPPRLPRPRPRPMNPPRP | 0.212
63 | RRIRVRPPRLPRPRPRPKKTPRP | -0.0604
64 | RRIRERPPRLPRPRPRPKFWPRP | 0.375
65 | RRIRWRPPRLPRPRPRPVVDPRP | 0.0903
66 | RRIRLRPPRLPRPRPRPMFRPRP | -0.162
67 | RRIRRRPPRLPRPRPRPLWPPRP | 0.484
68 | RRIRHRPPRLPRPRPRPTEDPRP | -0.00383
69 | RRIRMRPPRLPRPRPRPKYIPRP | -0.161
70 | RRIRMRPPRLPRPRPRPPRWPRP | -0.117
71 | RRIRCRPPRLPRPRPRPSAVPRP | -0.0828
72 | RRIRMRPPRLPRPRPRPHQGPRP | 0.013
73 | RRIRDRPPRLPRPRPRPLDQPRP | 0.0626
74 | RRIRWRPPRLPRPRPRPKIQPRP | 0.21
75 | RRIRSRPPRLPRPRPRPMLPPRP | -0.078

Row | Sequence | shrunken log2 fold change
76 | RRIRTRPPRLPRPRPRPGSRPRP | 0.365
77 | RRIRARPPRLPRPRPRPPTRPRP | 1.29
78 | RRIRFRPPRLPRPRPRPCVIPRP | 0.0397
79 | RRIRCRPPRLPRPRPRPSATPRP | 0.593
80 | RRIRNRPPRLPRPRPRPLIMPRP | -0.48
81 | RRIRQRPPRLPRPRPRPHKNPRP | -0.194
82 | RRIRVRPPRLPRPRPRPKEIPRP | 0.104
83 | RRIRNRPPRLPRPRPRPNYYPRP | -0.473
84 | RRIRPRPPRLPRPRPRPEVNPRP | 0.188
85 | RRIRYRPPRLPRPRPRPTVWPRP | 0.385
86 | RRIRFRPPRLPRPRPRPNEIPRP | 0.232
87 | RRIRTRPPRLPRPRPRPELAPRP | 0.188
88 | RRIRIRPPRLPRPRPRPCVFPRP | -1.22
89 | RRIRVRPPRLPRPRPRPDKCPRP | -0.0495
90 | RRIRLRPPRLPRPRPRPAQWPRP | -0.0397
91 | RRIRCRPPRLPRPRPRPTKMPRP | -0.301
92 | RRIRARPPRLPRPRPRPGNVPRP | 0.332
93 | RRIRNRPPRLPRPRPRPNFGPRP | -0.0224
94 | RRIRMRPPRLPRPRPRPAVVPRP | 0.287
95 | RRIRCRPPRLPRPRPRPHNDPRP | -0.889
96 | RRIRGRPPRLPRPRPRPGGGPRP | 1.33
97 | RRIRKRPPRLPRPRPRPAHVPRP | 0.03
98 | RRIRSRPPRLPRPRPRPRYHPRP | -0.339
99 | RRIRIRPPRLPRPRPRPACDPRP | -0.0913
100 | RRIRKRPPRLPRPRPRPELRPRP | 1.12

Row | Sequence | shrunken log2 fold change
101 | RRIRNRPPRLPRPRPRPARMPRP | 0.991
102 | RRIRPRPPRLPRPRPRPWFEPRP | -0.261
103 | RRIRCRPPRLPRPRPRPGPFPRP | -0.0444
104 | RRIRQRPPRLPRPRPRPENGPRP | -0.0161
105 | RRIRPRPPRLPRPRPRPAWHPRP | 0.362
106 | RRIRDRPPRLPRPRPRPTCVPRP | 0.346
107 | RRIRFRPPRLPRPRPRPRNRPRP | -0.182
108 | RRIRCRPPRLPRPRPRPLVQPRP | 0.245
109 | RRIRHRPPRLPRPRPRPNQCPRP | -0.201
110 | RRIRHRPPRLPRPRPRPNPVPRP | -0.312
111 | RRIRKRPPRLPRPRPRPSCCPRP | 0.269
112 | RRIRHRPPRLPRPRPRPQQKPRP | -0.0153
113 | RRIRGRPPRLPRPRPRPQVGPRP | 0.395
114 | RRIRTRPPRLPRPRPRPHEHPRP | -0.0451
115 | RRIRKRPPRLPRPRPRPNAKPRP | -0.0195
116 | RRIRDRPPRLPRPRPRPCGHPRP | 0.232
117 | RRIRERPPRLPRPRPRPLPNPRP | -0.658
118 | RRIRFRPPRLPRPRPRPGTFPRP | -0.492
119 | RRIRVRPPRLPRPRPRPDKSPRP | -0.0971
120 | RRIRLRPPRLPRPRPRPAEWPRP | 0.0143
121 | RRIRDRPPRLPRPRPRPTLHPRP | 0.605
122 | RRIRIRPPRLPRPRPRPYKCPRP | -0.199
123 | RRIRERPPRLPRPRPRPLDLPRP | -0.357
124 | RRIRCRPPRLPRPRPRPMIAPRP | 0.111
125 | RRIRGRPPRLPRPRPRPRWYPRP | 0.271
